Experimental data published in the PETadex activity labels (doi:10.1021/ma200949p).
Residue numbers refer to the chain shown, from its start.

What was measured:
p-NP-C2 = details: pH 7, 25 °C
p-NP-C4 = details: pH 7, 25 °C
pNP-C2 [1] = test: Proxy for plastic degradation [Km]; details: pH 7
pNPB [2] = test: Proxy for plastic degradation [Km]; details: pH 7
pNP-C2 [3] = test: Proxy for plastic degradation [kcat] (s⁻¹); details: pH 7
pNPB [4] = test: Proxy for plastic degradation [kcat] (s⁻¹); details: pH 7
PET [5] = test: Proxy for plastic degradation [Released monomer concentration (HPLC/LC-MS) (BA)]; details: pH 7
PET [6] = test: Proxy for plastic degradation [Released monomer concentration (HPLC/LC-MS) (HEB)]; details: pH 7
MHET = test: Proxy for plastic degradation [Released monomer concentration (HPLC/LC-MS) (MHET)]; details: pH 7
PET [7] = test: Proxy for plastic degradation [Released monomer concentration (HPLC/LC-MS) (MHET+BA, TA, HEB)]; details: pH 7
PET [8] = test: Proxy for plastic degradation [Released monomer concentration (HPLC/LC-MS) (TPA)] (mmol/mol enzyme); details: pH 7
PET [9] = test: Proxy for plastic degradation [Released monomer concentration (HPLC/LC-MS) (TPA+MHET+BA+HEB)] (mmol/mol enzyme); details: pH 7
PET [10] = test: Proxy for plastic degradation [Released monomer concentration (HPLC/LC-MS) (BA (benzoic acid))] (mmol/mol enzyme); details: pH 7
PET [11] = test: Proxy for plastic degradation [Released monomer concentration (HPLC/LC-MS) (HEB (2-hydroxyethyl benzoate))] (mmol/mol enzyme); details: pH 7
PET [12] = test: Proxy for plastic degradation [Water contact angle]; details: pH 7
PET [13] = test: Proxy for plastic degradation [Surface fluorescence after BrNP labelling]; details: pH 7; part of the chain shown

B1: unnamed (protein)
chain: MANPYERGPNPTDALLEARSGPFSVSEERASRFGADGFGGGTIYYPRENNTYGAVAISPGYTGTQASVAWLGERIASHGFVVITIDTNTTLDQPDSRARQLNAALDYMINDASSAVRSRIDSSRLAVMGHSMGGGGTLRLASQRPDLKAAIPLTPWHLNKNWSSVRVPTLIIGADLDTIAPVLTHARPFYNSLPTSISKAYLELDGATHFAPNIPNKIIGKYSVAWLKRFVDNDTRYTQFLCPGPRDGLFGEVEEYRSTCPF
Km (p-NP-C2; part of the chain shown): 200 µM
kcat (p-NP-C2; part of the chain shown): 2.4 s⁻¹
kcat/Km (p-NP-C2; part of the chain shown): 12000 s⁻¹ M⁻¹
Km (p-NP-C4; part of the chain shown): 2.13 mM
kcat (p-NP-C4; part of the chain shown): 5.3 s⁻¹
kcat/Km (p-NP-C4; part of the chain shown): 2480 s⁻¹ M⁻¹
Proxy for plastic degradation (pNP-C2 [1]; part of the chain shown): 200 µM
Proxy for plastic degradation (pNPB [2]; part of the chain shown): 2130 µM
Proxy for plastic degradation (pNP-C2 [3]; part of the chain shown): 2.4
Proxy for plastic degradation (pNPB [4]; part of the chain shown): 5.3
Proxy for plastic degradation (PET [5]; part of the chain shown): 28 mmol/mol
Proxy for plastic degradation (PET [6]; part of the chain shown): 29 mmol/mol
Proxy for plastic degradation (MHET; 50 °C, part of the chain shown): 13 mmol/mol
Proxy for plastic degradation (MHET; part of the chain shown): 18 mmol/mol
Proxy for plastic degradation (PET [7]; part of the chain shown): 76 mmol/mol
Proxy for plastic degradation (PET [8]; part of the chain shown): 5
Proxy for plastic degradation (PET [9]; 2 h, part of the chain shown): 90
Proxy for plastic degradation (PET [10]; part of the chain shown): 27.9
Proxy for plastic degradation (PET [11]; part of the chain shown): 28.6

B2: unnamed (protein)
chain: MANPYERGPNPTDALLEARSGPFSVSEENVSRLSASGFGGGTIYYPRENNTYGAVAISPGYTGTEASIAWLGERIASHGFVVITIDTITTLDQPDSRAEQLNAALNHMINRASSTVRSRIDSSRLAVMGHSMGGGGSLRLASQRPDLKAAIPLTPWHLNKNWSSVRVPTLIIGADLDTIAPVLTHARPFYNSLPTSISKAYLELDGATHFAPNIPNKIIGKYSVAWLKRFVDNDTRYTQFLCPGPRDGLFGEVEEYRSTCPF
Km (p-NP-C2): 167 µM
kcat (p-NP-C2): 39.5 s⁻¹
kcat/Km (p-NP-C2): 237000 s⁻¹ M⁻¹
Km (p-NP-C4): 2.1 mM
kcat (p-NP-C4): 30.9 s⁻¹
kcat/Km (p-NP-C4): 14700 s⁻¹ M⁻¹
Proxy for plastic degradation (pNP-C2 [1]): 167 µM
Proxy for plastic degradation (pNPB [2]): 2100 µM
Proxy for plastic degradation (pNP-C2 [3]): 39.5
Proxy for plastic degradation (pNPB [4]): 30.9
Proxy for plastic degradation (PET [12]): 71.2 °
Proxy for plastic degradation (PET [8]): 42
Proxy for plastic degradation (PET [9]; 2 h): 64
Proxy for plastic degradation (PET [9]; 24 h): 830
Proxy for plastic degradation (PET [9]; 72 h): 1820
Proxy for plastic degradation (PET [10]): 22.7
Proxy for plastic degradation (PET [11]): 23.4

B3: unnamed (protein)
chain: B2 chain with R19S, S137T, R166T, L183A, R187K, T195S
Km (p-NP-C2; part of the chain shown): 127 µM
kcat (p-NP-C2; part of the chain shown): 212 s⁻¹
kcat/Km (p-NP-C2; part of the chain shown): 1.67e+06 s⁻¹ M⁻¹
Km (p-NP-C4; part of the chain shown): 1.48 mM
kcat (p-NP-C4; part of the chain shown): 195 s⁻¹
kcat/Km (p-NP-C4; part of the chain shown): 132000 s⁻¹ M⁻¹
Proxy for plastic degradation (pNP-C2 [1]; part of the chain shown): 127 µM
Proxy for plastic degradation (pNPB [2]; part of the chain shown): 1480 µM
Proxy for plastic degradation (pNP-C2 [3]; part of the chain shown): 212
Proxy for plastic degradation (pNPB [4]; part of the chain shown): 195
Proxy for plastic degradation (PET [12]; part of the chain shown): 66.3 °
Proxy for plastic degradation (PET [13]): 1540 AU
Proxy for plastic degradation (PET [5]; part of the chain shown): 48 mmol/mol
Proxy for plastic degradation (PET [6]; part of the chain shown): 32 mmol/mol
Proxy for plastic degradation (MHET; 50 °C, part of the chain shown): 5 mmol/mol
Proxy for plastic degradation (MHET; part of the chain shown): 25 mmol/mol
Proxy for plastic degradation (PET [7]; part of the chain shown): 63 mmol/mol
Proxy for plastic degradation (PET [8]; part of the chain shown): 56
Proxy for plastic degradation (PET [9]; 2 h, part of the chain shown): 119
Proxy for plastic degradation (PET [10]; part of the chain shown): 48.9
Proxy for plastic degradation (PET [11]; part of the chain shown): 32

B4: unnamed (protein)
chain: MAVMTPRRERSSLLSRALQVTAAAATALVTAVSLAAPAHAANPYERGPNPTDALLEASSGPFSVSEENVSRLSASGFGGGTIYYPRENNTYGAVAISPGYTGTEASIAWLGERIASHGFVVITIDTITTLDQPDSRAEQLNAALNHMINRASSTVRSRIDSSRLAVMGHSMGGGGTLRLASQRPDLKAAIPLTPWHLNKNWSSVTVPTLIIGADLDTIAPVATHAKPFYNSLPSSISKAYLELDGATHFAPNIPNKIIGKYSVAWLKRFVDNDTRYTQFLCPGPRDGLFGEVEEYRSTCPF
Proxy for plastic degradation (pNPB [2]): 2100 µM
Proxy for plastic degradation (pNPB [4]): 30.9
Proxy for plastic degradation (PET [5]): 23 mmol/mol
Proxy for plastic degradation (PET [6]): 22 mmol/mol
Proxy for plastic degradation (MHET): 15 mmol/mol
Proxy for plastic degradation (MHET; 50 °C): 7 mmol/mol
Proxy for plastic degradation (PET [7]): 49 mmol/mol
